According to the supplement of paper PMC5998384:

Columns and labels:
HeLa Kyoto [1] = test: solubility in G1/S (NP-40 vs SDS abundance) (log2 ratio); higher = more soluble; settings: cell cycle stage: G1/S
HeLa Kyoto [2] = test: solubility change mitosis vs G1/S (difference of NP-40 vs SDS log2 ratios) (log2 ratio difference); higher = more soluble in mitosis
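Throughout, for solubility change mitosis vs G1/S (difference of NP-40 vs SDS log2 ratios): synchronized HeLa Kyoto cells (double thymidine block for G1/S, nocodazole release for mitosis), protein amounts in NP-40 versus SDS lysates quantified by mass spectrometry, three biological replicates.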
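Throughout, for solubility in G1/S (NP-40 vs SDS abundance): HeLa Kyoto cells arrested at G1/S by double thymidine block, proteins quantified by TMT10plex mass spectrometry in mild NP-40 versus SDS extracts, three biological replicates.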

Sequence of MAP1A (chain, as listed by the source): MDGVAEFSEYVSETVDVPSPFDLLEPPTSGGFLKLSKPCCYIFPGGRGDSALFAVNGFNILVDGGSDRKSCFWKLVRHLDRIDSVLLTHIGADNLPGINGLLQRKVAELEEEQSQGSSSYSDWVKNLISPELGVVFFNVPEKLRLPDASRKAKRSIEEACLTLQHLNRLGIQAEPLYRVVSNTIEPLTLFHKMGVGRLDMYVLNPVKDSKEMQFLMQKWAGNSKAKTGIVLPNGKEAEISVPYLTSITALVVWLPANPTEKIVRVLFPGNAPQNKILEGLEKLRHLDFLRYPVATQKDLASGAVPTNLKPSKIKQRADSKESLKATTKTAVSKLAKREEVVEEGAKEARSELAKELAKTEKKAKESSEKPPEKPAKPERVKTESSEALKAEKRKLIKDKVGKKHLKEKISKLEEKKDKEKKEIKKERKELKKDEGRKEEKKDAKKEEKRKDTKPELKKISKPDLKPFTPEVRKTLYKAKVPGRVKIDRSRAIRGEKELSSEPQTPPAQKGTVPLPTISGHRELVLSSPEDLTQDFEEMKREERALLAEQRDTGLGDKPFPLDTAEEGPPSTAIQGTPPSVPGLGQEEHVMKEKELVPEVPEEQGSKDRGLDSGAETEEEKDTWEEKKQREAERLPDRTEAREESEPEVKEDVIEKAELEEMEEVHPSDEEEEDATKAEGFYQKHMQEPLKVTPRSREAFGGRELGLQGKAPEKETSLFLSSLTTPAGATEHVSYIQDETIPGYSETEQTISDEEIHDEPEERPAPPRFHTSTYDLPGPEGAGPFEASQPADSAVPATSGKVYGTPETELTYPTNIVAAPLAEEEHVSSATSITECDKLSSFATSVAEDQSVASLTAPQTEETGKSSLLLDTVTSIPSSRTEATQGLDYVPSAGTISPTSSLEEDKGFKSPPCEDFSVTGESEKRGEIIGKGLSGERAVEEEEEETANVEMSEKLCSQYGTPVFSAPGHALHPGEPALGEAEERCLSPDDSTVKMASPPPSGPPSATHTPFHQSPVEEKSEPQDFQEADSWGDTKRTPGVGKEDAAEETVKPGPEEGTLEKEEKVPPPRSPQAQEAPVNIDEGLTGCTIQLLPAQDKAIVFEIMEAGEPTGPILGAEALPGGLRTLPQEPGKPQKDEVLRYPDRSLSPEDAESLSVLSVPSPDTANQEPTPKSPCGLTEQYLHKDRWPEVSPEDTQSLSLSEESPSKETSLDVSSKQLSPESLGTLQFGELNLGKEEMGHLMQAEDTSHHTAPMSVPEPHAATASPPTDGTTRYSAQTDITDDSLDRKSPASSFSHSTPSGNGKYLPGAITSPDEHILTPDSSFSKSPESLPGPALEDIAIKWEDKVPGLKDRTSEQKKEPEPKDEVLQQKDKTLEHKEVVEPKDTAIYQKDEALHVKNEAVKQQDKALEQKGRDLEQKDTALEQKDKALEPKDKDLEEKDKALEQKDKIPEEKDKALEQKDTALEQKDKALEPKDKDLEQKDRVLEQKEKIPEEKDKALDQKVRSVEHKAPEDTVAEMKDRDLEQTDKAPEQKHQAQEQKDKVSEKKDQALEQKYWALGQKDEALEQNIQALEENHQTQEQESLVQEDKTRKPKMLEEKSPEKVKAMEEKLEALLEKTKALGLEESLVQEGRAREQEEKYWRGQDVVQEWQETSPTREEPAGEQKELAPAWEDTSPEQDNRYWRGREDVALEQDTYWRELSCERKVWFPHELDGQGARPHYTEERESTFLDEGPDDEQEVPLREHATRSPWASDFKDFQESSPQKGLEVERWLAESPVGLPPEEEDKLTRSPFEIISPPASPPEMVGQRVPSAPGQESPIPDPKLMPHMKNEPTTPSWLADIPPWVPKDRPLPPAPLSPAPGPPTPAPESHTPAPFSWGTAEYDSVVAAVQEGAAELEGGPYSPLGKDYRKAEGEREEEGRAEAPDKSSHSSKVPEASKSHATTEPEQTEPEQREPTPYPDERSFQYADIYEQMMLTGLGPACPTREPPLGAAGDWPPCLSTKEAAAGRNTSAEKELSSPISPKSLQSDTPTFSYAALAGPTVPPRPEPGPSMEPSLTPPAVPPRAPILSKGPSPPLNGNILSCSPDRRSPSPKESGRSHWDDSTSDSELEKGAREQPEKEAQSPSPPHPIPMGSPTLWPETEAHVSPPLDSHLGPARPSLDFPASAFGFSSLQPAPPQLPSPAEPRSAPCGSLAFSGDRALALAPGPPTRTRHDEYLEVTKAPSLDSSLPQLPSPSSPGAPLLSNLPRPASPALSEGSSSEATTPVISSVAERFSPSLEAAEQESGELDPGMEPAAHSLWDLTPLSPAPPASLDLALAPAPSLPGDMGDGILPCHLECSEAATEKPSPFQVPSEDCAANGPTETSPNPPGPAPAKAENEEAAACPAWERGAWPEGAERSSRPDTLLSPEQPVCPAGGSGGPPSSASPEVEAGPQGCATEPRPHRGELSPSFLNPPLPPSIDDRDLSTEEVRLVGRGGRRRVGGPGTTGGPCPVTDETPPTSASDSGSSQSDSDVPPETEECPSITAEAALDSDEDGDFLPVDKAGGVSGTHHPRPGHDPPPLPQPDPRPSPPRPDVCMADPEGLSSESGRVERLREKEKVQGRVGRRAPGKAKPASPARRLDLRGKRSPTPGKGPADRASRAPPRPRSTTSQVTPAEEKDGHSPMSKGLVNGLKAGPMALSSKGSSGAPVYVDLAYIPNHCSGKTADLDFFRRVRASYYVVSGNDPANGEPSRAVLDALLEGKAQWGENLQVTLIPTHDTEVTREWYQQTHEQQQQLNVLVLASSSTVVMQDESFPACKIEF

| Substance | solubility in G1/S (log2) (HeLa Kyoto [1]) | solubility change mitosis (log2) (HeLa Kyoto [2]) |
| --- | --- | --- |
| MAGPQMGGSAEDHPPRKRHAAEKQKKKTVIYTKCFEFESATQRPIDRQRYDENEDLSDVEEIVSVRGFSLEEKLRSQLYQGDFVHAMEGKDFNYEYVQREALRVPLIFREKDGLGIKMPDPDFTVRDVKLLVGSRRLVDVMDVNTQKGTEMSMSQFVRYYETPEAQRDKLYNVISLEFSHTKLEHLVKRPTVVDLVDWVDNMWPQHLKEKQTEATNAIAEMKYPKVKKYCLMSVKGCFTDFHIDFGGTSVWYHVFRGGKIFWLIPPTLHNLALYEEWVLSGKQSDIFLGDRVERCQRIELKQGYTFFIPSGWIHAVYTPVDSLVFGGNILHSFNVPMQLRIYEIEDRTRVQPKFRYPFYYEMCWYVLERYVYCVTQRSHLTQEYQRESMLIDAPRKPSIDGFSSDSWLEMEEEACDQQPQEEEEKDEEGEGRDRAPKPPTDGSTSPTSTPSEDQEALGKKPKAPALRFLKRTLSNESEESVKSTTLAVDYPKTPTGSPATEVSAKWTHLTEFELKGLKALVEKLESLPENKKCVPEGIEDPQALLEGVKNVLKEHADDDPSLAITGVPVVTWPKKTPKNRAVGRPKGKLGPASAVKLAANRTTAGARRRRTRCRKCEACLRTECGECHFCKDMKKFGGPGRMKQSCIMRQCIAPVLPHTAVCLVCGEAGKEDTVEEEEGKFNLMLMECSICNEIIHPGCLKIKESEGVVNDELPNCWECPKCNHAGKTGKQKRGPGFKYASNLPGSLLKEQKMNRDNKEGQEPAKRRSECEEAPRRRSDEHSKKVPPDGLLRRKSDDVHLRKKRKYEKPQELSGRKRASSLQTSPGSSSHLSPRPPLGSSLSPWWRSSLTYFQQQLKPGKEDKLFRKKRRSWKNAEDRMALANKPLRRFKQEPEDELPEAPPKTRESDHSRSSSPTAGPSTEGAEGPEEKKKVKMRRKRRLPNKELSRELSKELNHEIQRTENSLANENQQPIKSEPESEGEEPKRPPGICERPHRFSKGLNGTPRELRHQLGPSLRSPPRVISRPPPSVSPPKCIQMERHVIRPPPISPPPDSLPLDDGAAHVMHREVWMAVFSYLSHQDLCVCMRVCRTWNRWCCDKRLWTRIDLNHCKSITPLMLSGIIRRQPVSLDLSWTNISKKQLSWLINRLPGLRDLVLSGCSWIAVSALCSSSCPLLRTLDVQWVEGLKDAQMRDLLSPPTDNRPGQMDNRSKLRNIVELRLAGLDITDASLRLIIRHMPLLSKLHLSYCNHVTDQSINLLTAVGTTTRDSLTEINLSDCNKVTDQCLSFFKRCGNICHIDLRYCKQVTKEGCEQFIAEMSVSVQFGQVEEKLLQKLS [KDM2B] | -0.295 | 0.226 |
| MAGWWPALSRAARRHPWPTNVLLYGSLVSAGDALQQRLQGREANWRQTRRVATLVVTFHANFNYVWLRLLERALPGRAPHALLAKLLCDQVVGAPIAVSAFYVGMSILQGKDDIFLDLKQKFWNTYLSGLMYWPFVQLTNFSLVPVQWRTAYAGVCGFLWATFICFSQQSGDGTFKSAFTILYTKGTSATEGYPKK [MPV17L] | -0.145 | -0.192 |
| MAKPAATAAAASEELSQVPDEELLRWSKEELARRLRRAEGEKVGLMLEHGGLMRDVNRRLQQHLLEIRGLKDVNQRLQDDNQELRELCCFLDDDRQKGRKLAREWQRFGRHAAGAVWHEVARSQQKLRELEARQEALLRENLELKELVLLLDEERAALAATGAASGGGGGGGGAGSRSSIDSQASLSGPLSGGAPGAGARDVGDGSSTSSAGSGGSPDHHHHVPPPLLPPGPHKAPDGKAGATRRSLDDLSAPPHHRSIPNGLHDPSSTYIRQLESKVRLLEGDKLLAQQAGSGEFRTLRKGFSPYHSESQLASLPPSYQDSLQNGPACPAPELPSPPSAGYSPAGQKPEAVVHAMKVLEVHENLDRQLQDSCEEDLSEKEKAIVREMCNVVWRKLGDAASSKPSIRQHLSGNQFKGPL [CCDC85C] | 0.216 | 0.214 |
| MAKRRAAEPVTFHVPWKRLLLCDFAEQPPPPPLWIRPPGVAHAGQLLGVPEQHRKRKIDAGTMAEPSASPSKRRDSGDNSAPSGQEREDHGLETGDPPLPPPPVLPGPGEELPGARLPGGGGDDGAGRAGPPRGDWGVASRQHNEEFWQYNTFQYWRNPLPPIDLADIEDLSEDTLTEATLQGRNEGAEVDMES [C9ORF40] | 0.182 | -0.227 |
| MAKSNGENGPRAPAAGESLSGTRESLAQGPDAATTDELSSLGSDSEANGFAERRIDKFGFIVGSQGAEGALEEVPLEVLRQRESKWLDMLNNWDKWMAKKHKKIRLRCQKGIPPSLRGRAWQYLSGGKVKLQQNPGKFDELDMSPGDPKWLDVIERDLHRQFPFHEMFVSRGGHGQQDLFRVLKAYTLYRPEEGYCQAQAPIAAVLLMHMPAEQAFWCLVQICEKYLPGYYSEKLEAIQLDGEILFSLLQKVSPVAHKHLSRQKIDPLLYMTEWFMCAFSRTLPWSSVLRVWDMFFCEGVKIIFRVGLVLLKHALGSPEKVKACQGQYETIERLRSLSPKIMQEAFLVQEVVELPVTERQIEREHLIQLRRWQETRGELQCRSPPRLHGAKAILDAEPGPRPALQPSPSIRLPLDAPLPGSKAKPKPPKQAQKEQRKQMKGRGQLEKPPAPNQAMVVAAAGDACPPQHVPPKDSAPKDSAPQDLAPQVSAHHRSQESLTSQESEDTYL [TBC1D10A] | 0.438 | -0.147 |
| MALEGMSKRKRKRSVQEGENPDDGVRGSPPEDYRLGQVASSLFRGEHHSRGGTGRLASLFSSLEPQIQPVYVPVPKQTIKKTKRNEEEESTSQIERPLSQEPAKKVKAKKKHTNAEKKLADRESALASADLEEEIHQKQGQKRKNSQPGVKVADRKILDDTEDTVVSQRKKIQINQEEERLKNERTVFVGNLPVTCNKKKLKSFFKEYGQIESVRFRSLIPAEGTLSKKLAAIKRKIHPDQKNINAYVVFKEESAATQALKRNGAQIADGFRIRVDLASETSSRDKRSVFVGNLPYKVEESAIEKHFLDCGSIMAVRIVRDKMTGIGKGFGYVLFENTDSVHLALKLNNSELMGRKLRVMRSVNKEKFKQQNSNPRLKNVSKPKQGLNFTSKTAEGHPKSLFIGEKAVLLKTKKKGQKKSGRPKKQRKQK [RBM34] | -2.26 | 1.46 |
| MALKGRALYDFHSENKEEISIQQDEDLVIFSETSLDGWLQGQNSRGETGLFPASYVEIVRSGISTNHADYSSSPAGSPGAQVSLYNSPSVASPARSGGGSGFLSNQGSFEEDDDDDWDDWDDGCTVVEEPRAGGLGTNGHPPLNLSYPGAYPSQHMAFRPKPPLERQDSLASAKRGSVVGRNLNRFSCFVRSGVEAFILGDVPMMAKIAETYSIEMGPRGPQWKANPHPFACSVEDPTKQTKFKGIKSYISYKLTPTHAASPVYRRYKHFDWLYNRLLHKFTVISVPHLPEKQATGRFEEDFIEKRKRRLILWMDHMTSHPVLSQYEGFQHFLSCLDDKQWKMGKRRAEKDEMVGASFLLTFQIPTEHQDLQDVEDRVDTFKAFSKKMDDSVLQLSTVASELVRKHVGGFRKEFQKLGSAFQAISHSFQMDPPFCSEALNSAISHTGRTYEAIGEMFAEQPKNDLFQMLDTLSLYQGLLSNFPDIIHLQKGAFAKVKESQRMSDEGRMVQDEADGIRRRCRVVGFALQAEMNHFHQRRELDFKHMMQNYLRQQILFYQRVGQQLEKTLRMYDNL [SNX33] | -0.337 | -0.033 |
| MALMQELYSTPASRLDSFVAQWLQPHREWKEEVLDAVRTVEEFLRQEHFQGKRGLDQDVRVLKVVKVGSFGNGTVLRSTREVELVAFLSCFHSFQEAAKHHKDVLRLIWKTMWQSQDLLDLGLEDLRMEQRVPDALVFTIQTRGTAEPITVTIVPAYRALGPSLPNSQPPPEVYVSLIKACGGPGNFCPSFSELQRNFVKHRPTKLKSLLRLVKHWYQQYVKARSPRANLPPLYALELLTIYAWEMGTEEDENFMLDEGFTTVMDLLLEYEVICIYWTKYYTLHNAIIEDCVRKQLKKERPIILDPADPTLNVAEGYRWDIVAQRASQCLKQDCCYDNRENPISSWNVKRARDIHLTVEQRGYPDFNLIVNPYEPIRKVKEKIRRTRGYSGLQRLSFQVPGSERQLLSSRCSLAKYGIFSHTHIYLLETIPSEIQVFVKNPDGGSYAYAINPNSFILGLKQQIEDQQGLPKKQQQLEFQGQVLQDWLGLGIYGIQDSDTLILSKKKGEALFPAS [OASL] | -0.811 | 0.156 |
| MAMQEKYPTEGISHVTSPSSDVIQKGSSLGTEWQTPVISEPFRSRFSRCSSVADSGDTAIGTSCSDIAEDFCSSSGSPPFQPIKSHVTIPTAHVMPSTLGTSPAKPNSTPVGPSSSKLPLSGLAESVGMTRNGDLGAMKHSPGLSRDLMYFSGATGENGIEQSWFPAVGHERQEEARKFDIPSMESTLNQSAMMETLYSDPHHRVRFHNPRTSTSKELYRVLPEAKKAPGSGAVFERNGPHSNSSGVLPLGLQPAPGLSKPLPSQVWQPSPDTWHPREQSCELSTCRQQLELIRLQMEQMQLQNGAICHHPAAFGPSLPILEPAQWISILNSNEHLLKEKELLIDKQRKHISQLEQKVRESELQVHSALLGRPAPFGDVCLLRLQELQRENTFLRAQFAQKTEALSREKIDLEKKLSASEVEVQLIRESLKVALQKHSEEVKKQEERVKGRDKHINNLKKKCQKESEQNREKQQRIETLERYLADLPTLEDHQKQSQQLKDSELKSTELQEKVTELESLLEETQAICREKEIQLESLRQREAEFSSAGHSLQDKQSVEETSGEGPEVEMESWQKRYDSLQKIVEKQQQKMDQLRSQVQSLEQEVAQEEGTSQALREEAQRRDSALQQLRTAVKELSVQNQDLIEKNLTLQEHLRQAQPGSPPSPDTAQLALELHQELASCLQDLQAVCSIVTQRAQGHDPNLSLLLGIHSAQHPETQLDLQKPDVIKRKLEEVQQLRRDIEDLRTTMSDRYAQDMGENCVTQ [CEP85] | 0.35 | -0.194 |
| MAP1A | -0.122 | -0.0549 |
| MAPGSRGERSSFRSRRGPGVPSPQPDVTMLSRLLKEHQAKQNERKELQEKRRREAITAATCLTEALVDHLNVGVAQAYMNQRKLDHEVKTLQVQAAQFAKQTGQWIGMVENFNQALKEIGDVENWARSIELDMRTIATALEYVYKGQLQSAPS [BLOC1S1] | 0.51 | 0.133 |
| MAPVSGSRSPDREASGSGGRRRSSSKSPKPSKSARSPRGRRSRSHSCSRSGDRNGLTHQLGGLSQGSRNQSYRSRSRSRSRERPSAPRGIPFASASSSVYYGSYSRPYGSDKPWPSLLDKEREESLRQKRLSERERIGELGAPEVWGLSPKNPEPDSDEHTPVEDEEPKKSTTSASTSEEEKKKKSSRSKERSKKRRKKKSSKRKHKKYSEDSDSDSDSETDSSDEDNKRRAKKAKKKEKKKKHRSKKYKKKRSKKSRKESSDSSSKESQEEFLENPWKDRTKAEEPSDLIGPEAPKTLTSQDDKPLNYGHALLPGEGAAMAEYVKAGKRIPRRGEIGLTSEEIASFECSGYVMSGSRHRRMEAVRLRKENQIYSADEKRALASFNQEERRKRENKILASFREMVYRKTKGKDDK [NKAP] | -0.301 | 0.107 |
| MAQEKMELDLEPDTSYGGTLRRSSSAPLIHGLSDLSQVFQPYTLRTRRNSTTIMSRHSLEEGLDMVNRETAHEREMQTAMQISQSWDESLSLSDSDFDKPEKLYSPKRIDFTPVSPAPSPTRGFGKMFVSSSGLPPSPVPSPRRFSRRSQSPVKCIRPSVLGPLKRKGEMETESQPKRLFQGTTNMLSPDAAQLSDLSSCSDILDGSSSSSGLSSDPLAKGSATAESPVACSNSCSSFILMDDLSPK [FAM122B] | 1.18 | -0.79 |
